“And” between values parts separate entries of the source, which are not always exact repeats. Equal values may be shown once. Where a SMILES comes first, the peptide text is derived from it. Bridges are numbered along the chain shown (N, C = ends). The star is where a group is joined. DOTA = O=C(O)CN1CCN(CC(=O)O)CCN(CC(=O)*)CCN(CC(=O)O)CC1
Experiments:
[1] = Gadolinium in the aortic wall by ICP-MS; format: in vivo, mouse; conditions: ICP-MS of digested aorta after probe administration; individual mice, n = 7
Procedure: The samples were dissolved with 12 ml ultrapure water.

ADAMTS4 = target: T1, ADAMTS4 (Homo sapiens, UniProt O75173); test: MST of earlier manuscript version (RED-tris-NTA labeled protein); conditions: earlier manuscript version quoted in peer review file; RED-tris-NTA labeled ADAMTS4, FAM-5 labeled peptides; read-out: binding constant (KD)
T1 construct: This is consistent with the recombinant proteins, we used in the screening process; purchased BioTeZ Berlin-Buch GmbH 30 400 102
T1 sequence (O75173 213-685): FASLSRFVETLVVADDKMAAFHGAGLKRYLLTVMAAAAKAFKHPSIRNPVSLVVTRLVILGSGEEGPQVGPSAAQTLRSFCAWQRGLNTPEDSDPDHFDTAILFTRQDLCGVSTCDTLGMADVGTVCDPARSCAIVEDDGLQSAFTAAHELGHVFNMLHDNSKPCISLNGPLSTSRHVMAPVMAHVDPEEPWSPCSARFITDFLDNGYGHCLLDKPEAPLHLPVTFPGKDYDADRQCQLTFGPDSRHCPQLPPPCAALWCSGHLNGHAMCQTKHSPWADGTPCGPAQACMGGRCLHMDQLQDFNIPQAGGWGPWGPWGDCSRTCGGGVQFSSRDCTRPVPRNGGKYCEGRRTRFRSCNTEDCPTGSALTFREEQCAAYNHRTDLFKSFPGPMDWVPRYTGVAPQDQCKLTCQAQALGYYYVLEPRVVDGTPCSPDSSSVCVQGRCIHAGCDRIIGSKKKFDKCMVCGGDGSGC
Excerpt: on the beads. Additionally, we could not find any traces of proteins in the MALDI-TOF-MS […]
We identified one candidate as the most promising binding peptide for ADAMTS4 with the sequence Ser- Cys*-Gly-Arg-Arg-Ser-Cys* (Supp. Fig. 1b, c).
5. “The representation of SPR data needs to be adjusted, additional experimental details have to be added to the Supplemental figures. Please, see the comments in Supplemental for details.” We apologize to the reviewer for this oversight. All data are now added to the supplemental material. SPR was only use for classification to determine whether the peptides represent potential […]
Page 8: For the resulting ADAMTS4- specific probe, we measured a binding constant of 38 nM […]
6. […] The data quality if […]
unfortunately too poor (the amplitude too low; minimal recommended amplitude is 3). Also, why were the FAM-5 labeled peptides used in the combination with the RED-tris-NTA labeled protein? […]
Additionally, we measured the same probe against ADAMTS1 and ADAMTS5 in the same concentration range, and we could not detect binding in this range (Supp. Fig. 2a). […]
R = Ranti−His−Ab ∗ MADAMTS4 ∗ Valencyanti−His−Ab we calculated a Rmax of 5524 µRIU. […]
Before and after the run, a blank was measured. […]
19. […] Using the fluorescence of the labeled […]
We added the sensogram and calculated the protein capture (please refer to question 16).

Structure (SMILES): N=C(N)NCCC[C@@H]1NC(=O)[C@H](CCCNC(=N)N)NC(=O)[C@H](CO)NC(=O)[C@@H](N)CSSC[C@@H](C(=O)N[C@@H](CO)C(=O)NCC(=O)NCC(=O)N[C@@H](CO)C(=O)NCC(=O)NCC(=O)N[C@@H](CCCCNC(=O)CN2CCN(CC(=O)O)CCN(CC(=O)O)CCN(CC(=O)O)CC2)C(=O)NCC(N)=O)NC(=O)CNC1=O (Gd complex, metal not drawn) [ADAMTS4-specific probe] (H-CSRRGCSGGSGGK(DOTA)G-NH2; disulfide 1-6)
- Gd amount in the aortic wall [1]: 38.015 ng/kg and 35.695 ng/kg and 62.7086 ng/kg and 32.3631 ng/kg and 8.118 ng/kg and 16.4033 ng/kg and 11.8689 ng/kg
- Kd (ADAMTS4): 38 nM
